Positions count from the first letter of the chain named.
B1: pol30-Rad27L1: PCNA mutant evolved for Rad27, two-residue deletion, IDCL sequence D––VDILKIGEL (protein)
chain: MLEAKFEEASLFKRIIDGFKDCVQLVNFQCKEDGIIAQAVDDSRVLLVSLEIGVEAFQEYRCDHPVTLGMDLTSLSKILRCGNNTDTLTLIADNTPDSIILLFEDTKKDRIAEYSLKLMDVDILKIGELQYDSTLSLPSSEFSKIVRDLSQLSDSINIMITKETIKFVADGDIGSGSVIIKPFVDMEHPETSIKLEMDQPVDLTFGAKYLLDIIKGSSLSDRVGIRLSSEAPALFQFDLKSGFLQFFLAPKFNDEE
modifications: left off: Gal4 activation domain, end not stated, kept
B2: pol30-Rad27L2: PCNA mutant evolved for Rad27, two-residue deletion, IDCL sequence D––VDTLKITEL (protein)
chain: B1 chain with I123T, G127T
modifications: left off: Gal4 activation domain, end not stated, kept
B3: Rad30, Q04049 1-632 (natural protein)
chain: MSKFTWKELIQLGSPSKAYESSLACIAHIDMNAFFAQVEQMRCGLSKEDPVVCVQWNSIIAVSYAARKYGISRMDTIQEALKKCSNLIPIHTAVFKKGEDFWQYHDGCGSWVQDPAKQISVEDHKVSLEPYRRESRKALKIFKSACDLVERASIDEVFLDLGRICFNMLMFDNEYELTGDLKLKDALSNIREAFIGGNYDINSHLPLIPEKIKSLKFEGDVFNPEGRDLITDWDDVILALGSQVCKGIRDSIKDILGYTTSCGLSSTKNVCKLASNYKKPDAQTIVKNDCLLDFLDCGKFEITSFWTLGGVLGKELIDVLDLPHENSIKHIRETWPDNAGQLKEFLDAKVKQSDYDRSTSNIDPLKTADLAEKLFKLSRGRYGLPLSSRPVVKSMMSNKNLRGKSCNSIVDCISWLEVFCAELTSRIQDLEQEYNKIVIPRTVSISLKTKSYEVYRKSGPVAYKGINFQSHELLKVGIKFVTDLDIKGKNKSYYPLTKLSMTITNFDIIDLQKTVVDMFGNQVHTFKSSAGKEDEEKTTSSKADEKTPKLECCKYQVTFTDQKALQEHADYHLALKLSEGLNGAEESSKNLSFGEKRLLFSRKRPNSQHTATPQKKQVTSSKNILSFFTRKK

What was measured:
Apn2 = assay: Yeast two hybrid (Y2H) analysis of PCNA-partner interaction; assay type: binding; set-up: key: ++: major increase in growth; +: moderate increase in growth; similar growth as the WT PCNA-expressing cells; -: minor decrease in growth; --: moderate decrease in growth; ---: major decrease in growth; details: spotting onto selective agar plates; PCNA fused to AD, partner to BD
Experimental: (§1) Y2H analysis was performed using the Yeast Two Hybrid Phagemid vector kit (Stratagene), following the manufacturer's instructions. The pAD-PCNA-WT/mutant plasmids were used as bait while plasmids encoding 12 different PCNA partners (Table 1 and Table S1) were used as prey. The YRG2 host strain (Stratagene) was cotransformed with pAD-PCNA WT/mutant and pBD-partner plasmids in all possible combinations using the LiAC method. Single transformants were grown in liquid SC-Leu-Trp to O.D600 10, washed twice with DDW, and diluted to an initial OD600 of 0.3. A series of 10-fold serial dilutions was then spotted onto selective SC-Leu-Trp-His plates and incubated at 30°C for 3 d. For quantitative Y2H, the generation time of the indicated mutants and their respective partners were calculated from their growth curves in liquid SC-Leu-Trp-His media. Cells were grown overnight in SC-Leu-Trp, washed twice with ddH2O, and diluted by a factor of 1∶50 into 10 ml of pre-warmed SC-Leu-Trp-His. O.D600 measurements of the cultures were taken at the indicated time; the generation time (τ) was calculated from the growth curves according to the equation ODt = OD0×2^t/τ. The generation time calculated for each culture is an average of at least 3 independent experiments.
(§2) Table S1: Yeast two hybrid analysis of binding of selected PCNA mutants with seven additional partners not described in Table 1 of the main text. […]
(§3) pol30-Rad30E2 WT WT WT WT WT WT - pol30-Rad30E9 WT WT WT WT WT WT WT pol30-Rad27E6 WT WT WT WT + WT WT pol30-Rad27E31 WT WT WT WT + WT WT pol30-Rad27L1 WT -- WT WT -- WT WT pol30-Rad27L2 WT -- WT WT -- WT WT pol30-Pol32E5 WT WT WT WT WT WT WT pol30-Pol32E9 - WT WT WT WT WT WT pol30-Msh6E2 WT WT + WT WT WT WT pol30-Msh6E6 WT WT ++ WT WT WT WT pol30-Ung1E3 WT - WT WT WT WT WT pol30-79 --- --- --- - --- --- --- a PCNA mutants with enhanced affinities for the different target partners (see Table 1, text). b PCNA mutants were fused to the activating domain (AD), while the different partners were fused to the DNA-binding domain (BD). The growth of the resulting Y2H strains was compared to the growth of the WT PCNA-expressing strain following spotting onto selective agar plates (see Material and Methods). Growth rates on the agar plates were scored and tabulated as follows: ++ major increase in growth; + moderate increase in growth; WT-similar growth as the WT PCNA-expressing cells; - minor decrease in growth; -- moderate decrease in growth; --- major decrease in growth. ND-Not determined.

Msh3 = assay: as above; assay type: binding; set-up: key: ++: major increase in growth; +: moderate increase in growth; similar growth as the WT PCNA-expressing cells; -: minor decrease in growth; --: moderate decrease in growth; ---: major decrease in growth; details: spotting onto selective agar plates; PCNA fused to AD, partner to BD
Experimental: as §1, §2, §3

Cac1 = assay: as above; assay type: binding; set-up: key: ++: major increase in growth; +: moderate increase in growth; similar growth as the WT PCNA-expressing cells; -: minor decrease in growth; --: moderate decrease in growth; ---: major decrease in growth; details: spotting onto selective agar plates; PCNA fused to AD, partner to BD
Experimental: as §1, §2, §3

Cdc9 = assay: as above; assay type: binding; set-up: key: ++: major increase in growth; +: moderate increase in growth; similar growth as the WT PCNA-expressing cells; -: minor decrease in growth; --: moderate decrease in growth; ---: major decrease in growth; details: spotting onto selective agar plates; PCNA fused to AD, partner to BD
Experimental: as §1, §2, §3

Rrm3 = assay: as above; assay type: binding; set-up: key: ++: major increase in growth; +: moderate increase in growth; similar growth as the WT PCNA-expressing cells; -: minor decrease in growth; --: moderate decrease in growth; ---: major decrease in growth; details: spotting onto selective agar plates; PCNA fused to AD, partner to BD
Experimental: as §1, §2, §3

Eco1 = assay: as above; assay type: binding; set-up: key: ++: major increase in growth; +: moderate increase in growth; similar growth as the WT PCNA-expressing cells; -: minor decrease in growth; --: moderate decrease in growth; ---: major decrease in growth; details: spotting onto selective agar plates; PCNA fused to AD, partner to BD
Experimental: as §1, §2, §3

Rfc1 = assay: as above; assay type: binding; set-up: key: ++: major increase in growth; +: moderate increase in growth; similar growth as the WT PCNA-expressing cells; -: minor decrease in growth; --: moderate decrease in growth; ---: major decrease in growth; details: spotting onto selective agar plates; PCNA fused to AD, partner to BD
Experimental: as §1, §2, §3

Rad27 = assay: as above; assay type: binding; details: footnote c: generation time in liquid selective media lacking histidine relative to cells expressing WT PCNA; average of at least 3 independent experiments
Experimental: (§4) For the Y2H assay, we used the YRG2 host strain, shown to be highly efficient in coupling the strength of protein-protein interactions with growth on media lacking histidine. Selected PCNA mutants were characterized for their ability to bind each of 12 main PCNA partners to obtain specificity profiles (Table 1, Table S1, and Figures S4–S5). […] However, in some cases a strong trade-off between the bindings of different partners was observed.
as §1

Ung1 = assay: as above; assay type: binding; details: YRG2 strain, growth on selective agar plates lacking histidine; growth similar to WT PCNA denoted as 1
Experimental: as §4, §1

Pol32 = assay: as above; assay type: binding; details: YRG2 strain, growth on selective agar plates lacking histidine; growth similar to WT PCNA denoted as 1
Experimental: as §4, §1

Msh6 = assay: as above; assay type: binding; details: YRG2 strain, growth on selective agar plates lacking histidine; growth similar to WT PCNA denoted as 1
Experimental: as §4, §1

yeast strains = assay: Viability of haploid strains with mutant as sole source of PCNA (plasmid shuffling, 5FOA); assay type: cell-based; details: for viability of strain containing the mutant as the sole source of PCNA: plasmid shuffling, selection on 5FOA; for effect of rad27 deletion on lethality of the mutant strain: rad27-deleted background, 5-FOA
Text: To study the in vivo ability of PCNA mutants to promote DNA replication and repair in yeast, we adopted a plasmid shuffling method to create haploid yeast strains carrying each mutant as the sole source of PCNA (see Materials and Methods). This approach allowed us to identify PCNA mutants leading to cell death, indicating their inability to support essential DNA replication processes (Figure 5A). […] To verify that the replication defects in the mutant strains (Figure 5) are not due to reduced expression levels of the PCNA proteins, we confirmed the expression level of PCNA using western blot analysis and observed similar expression levels of all PCNA mutants, relative to WT PCNA (Figure S7).
Figure 5 In vivo phenotypic analysis of PCNA mutants. (A) Non-viable strains containing PCNA mutants with increased binding affinity for Rad27 as the sole version of PCNA. Yeast strains containing WT PCNA expressed from a URA3 plasmid and mutant PCNA genes expressed from a LEU2 plasmid are viable (middle). Upon selection for loss of WT PCNA using 5-floororotic acid (5FOA), PCNA mutant strains are non-viable (right). (B) MMS (middle) and HU (right) sensitivity of strains containing PCNA mutants with increased binding affinity for Rad27, Pol32, Rad30, Msh6, and Ung1 and strains containing WT PCNA in which the same partners were deleted. For binding characterization and sequences of the mutants, see Table 1.
Novel haploids containing PCNA mutants were generated using the plasmid shuffling method. Briefly, a pol30::KanMX magic marker heterozygote diploid strain BY4743 (Open Biosystem) was transformed with plasmid pRS316-POL30. Following dissection of the diploid, a haploid containing the CAN+ gene and plasmid pRS316-POL30 as a sole source of PCNA was generated. This host strain was transformed with selected pRS315-pol30 mutants, plated on SC-Ura-Leu plates, followed by replica plating to SC-Leu+5FOA plates. Haploids, containing PCNA mutants as a sole source, were further verified by plating on either SC-Leu or SC-Ura plates. For testing selected PCNA mutants, a haploid containing rad27::HYG, rad30::HYG, pol32::HYG, msh6::HYG, or ung1::HYG were generated using plasmid pAG32 by conventional genetic approaches. Growth of the PCNA mutant strains in the presence of 120 mM HU (Toronto Research Chemicals) or 0.02% MMS (Sigma) was performed as described. To examine the effects of partner overexpression on pol30 mutant strains, these strains were transformed with various plasmids containing GST-tagged PCNA partner encoding genes under the control of a GAL1/10 inducible promoter, as previously described. Overnight cultures were plated in serial dilutions on SC-Ura containing either glucose or galactose with or without DNA-damaging agents, as described above.

pol30-79 (yeast), P15873 = molecular target: T1, pol30-79 (yeast), P15873; assay: two-hybrid; quantitative Y2H: generation time of the YRG2 strains in liquid SC-Leu-Trp-His, given relative to cells expressing WT PCNA; average of at least 3 experiments; details: remark: other sources report otherwise
T1 chain: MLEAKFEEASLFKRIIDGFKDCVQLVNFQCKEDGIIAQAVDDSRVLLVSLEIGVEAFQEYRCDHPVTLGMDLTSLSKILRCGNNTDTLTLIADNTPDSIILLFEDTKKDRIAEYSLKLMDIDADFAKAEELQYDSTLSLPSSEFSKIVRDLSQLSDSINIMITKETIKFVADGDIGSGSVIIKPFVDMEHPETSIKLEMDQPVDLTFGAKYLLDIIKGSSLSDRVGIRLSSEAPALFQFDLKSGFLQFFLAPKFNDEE

Row | Molecule | Y2H growth relative to WT PCNA-expressing strain: Apn2 (Apn2) | Y2H growth relative to WT PCNA-expressing strain: Msh3 (Msh3) | Y2H growth relative to WT PCNA-expressing strain: Cac1 (Cac1) | Y2H growth relative to WT PCNA-expressing strain: Cdc9 (Cdc9) | Y2H growth relative to WT PCNA-expressing strain: Rrm3 (Rrm3) | Y2H growth relative to WT PCNA-expressing strain: Eco1 (Eco1) | Y2H growth relative to WT PCNA-expressing strain: Rfc1 (Rfc1) | Binding of PCNA Mutants to Target Partners: Rad27, fold increase or decrease (quantitative Y2H) (Rad27) | Binding of PCNA Mutants to Target Partners: Ung1 (Y2H) (Ung1) | Binding of PCNA Mutants to Target Partners: Pol32 (Y2H) (Pol32) | Binding of PCNA Mutants to Target Partners: Msh6 (Y2H) (Msh6) | viability of strain containing the mutant as the sole source of PCNA (yeast strains) | effect of rad27 deletion on lethality of the mutant strain (yeast strains) | fold change in affinity relative to WT PCNA (Y2H generation time) (pol30-79 (yeast), P15873)
1 | B1 | WT | WT | -- | WT | WT | -- | WT | 1.7 ^c fold | 1 | 1 | 1 | lethality | suppressed the lethality | 
2 | B2 | WT | WT | -- | WT | WT | -- | WT | 1.5 ^c fold | 1 | 1 | 1 | lethality | suppressed the lethality | 
3 | B3 |  |  |  |  |  |  |  |  |  |  |  |  |  | 0.4 fold

Reference: PMC2953525, “Subtle Alterations in PCNA-Partner Interactions Severely Impair DNA Replication and Repair” (PLoS Biology, 2010)
